From paper PMC2728497 come the findings set out here.

As a reminder, the stoichiometry N is a count of units in the complex or per binding partner.

The target in this assay is Aβ1-40wt (human). Kind of assay: SEC. A general note: SEC sorts molecules by how far they enter the pores of the column.

Aβ1-40wt (peptide): the stoichiometry N is 2.
